Patent US20150368661A1 (UNIVERSITY OF LOUISVILLE RESEARCH FOUNDATION, published 2015)
Where two headings read alike, the source gives them in different places.

Columns and labels:
[1] = target: T1, recombinant gp120 from HIV-1 SF162 (clade B) (HIV-1 SF162 (clade B), UniProt P19550 32-502); experiment: VRC01p (plant-produced)
T1 construct: domain: gp120; also called gp120SF162

[2] = target: T2, HIV-1 Env of strain Q769.h5 (clade A) on Env-pseudotyped virus (HIV-1 Q769.h5 (clade A)); experiment: cell-based or functional assay
[3] = target: T3, HIV-1 Env of strain SF162 (clade B) on Env-pseudotyped virus (HIV-1 SF162 (clade B), UniProt P19550 32-847); experiment: cell-based or functional assay
[4] = target: T4, HIV-1 Env of strain SS1196.1 (clade B) on Env-pseudotyped virus (HIV-1 SS1196.1 (clade B)); experiment: cell-based or functional assay
[5] = target: T5, HIV-1 Env of strain Du156 (clade C) on Env-pseudotyped virus (HIV-1 Du156 (clade C)); experiment: cell-based or functional assay
[6] = target: T2, HIV-1 Env of strain Q769.h5 (clade A) …; experiment: cell-based or functional assay; remark: listed apart in the source
[7] = target: T3, HIV-1 Env of strain SF162 (clade B) on …; experiment: cell-based or functional assay; remark: listed apart in the source
[8] = target: T4, HIV-1 Env of strain SS1196.1 (clade B) …; experiment: cell-based or functional assay; remark: listed apart in the source
[9] = target: T5, HIV-1 Env of strain Du156 (clade C) on …; experiment: cell-based or functional assay; remark: listed apart in the source
[10] = target: T6, recombinant gp120 from HIV-1 Q769.H5 (clade A) (HIV-1 Q769.H5 (clade A)); experiment: gp120-ELISA, plate coated with recombinant gp120, non-linear regression
T6 construct: domain: gp120

[11] = target: T7, recombinant gp120 from HIV-1 DU156 (clade C) (HIV-1 DU156 (clade C)); experiment: as above
T7 construct: domain: gp120; also called gp120DU156

[12] = target: T1, recombinant gp120 from HIV-1 SF162 …; experiment: gp120-ELISA, plate coated with recombinant gp120, non-linear regression; VRC01p (plant-produced)
[13] = target: T1, recombinant gp120 from HIV-1 SF162 …
[14] = target: T1, recombinant gp120 from HIV-1 SF162 …; experiment: gp120-ELISA, plate coated with recombinant gp120, non-linear regression

B1: VRC01p (Nicotiana benthamiana plant-expressed anti-HIV-1 bnMAb VRC01 IgG1 from the L-(KP6pp)-H construct) (antibody)
light: EIVLTQSPGTLSLSPGETAIISCRTSQYGSLAWYQQRPGQAPRLVIYSGSTRAAGIPDRFSGSRWGPDYNLTISNLESGDFGVYYCQQYEFFGQGTKVQVDIKRTVAAPSVFIFPPSDEQLKSGTASVVCLLNNFYPREAKVQWKVDNALQSGNSQESVTEQDSKDSTYSLSSTLTLSKADYEKHKVYACEVTHQGLRSPVTKSFNRGECGGK
heavy: not shown
notes: also called plant-produced VRC01; VRC01p IgG1
[1]
  Kd: 3.97 nM
[2]
  VRC01p IC50 (µg/ml), HIV-1 neutralization: 0.17 µg/mL
[3]
  VRC01p IC50 (µg/ml), HIV-1 neutralization: 0.04 µg/mL
[4]
  VRC01p IC50 (µg/ml), HIV-1 neutralization: 1.32 µg/mL
[5]
  VRC01p IC50 (µg/ml), HIV-1 neutralization: 0.14 µg/mL
[6]
  IC50 (µg/ml) for VRC01p alone, HIV-1 neutralization, TZM-bl cells (VRC01p:GRFT series): 0.37 µg/mL
  IC50 (µg/ml) for VRC01p alone, HIV-1 neutralization, TZM-bl cells (VRC01p:MVC series): 0.54 µg/mL
  IC50 (µg/ml) for VRC01p alone, HIV-1 neutralization, TZM-bl cells (VRC01p:TFV series): 0.47 µg/mL
[7]
  IC50 (µg/ml) for VRC01p alone, HIV-1 neutralization, TZM-bl cells (VRC01p:GRFT series): 0.98 µg/mL
  IC50 (µg/ml) for VRC01p alone, HIV-1 neutralization, TZM-bl cells (VRC01p:MVC series): 0.5 µg/mL
  IC50 (µg/ml) for VRC01p alone, HIV-1 neutralization, TZM-bl cells (VRC01p:TFV series): 0.65 µg/mL
[8]
  IC50 (µg/ml) for VRC01p alone, HIV-1 neutralization, TZM-bl cells (VRC01p:GRFT series): 2.61 µg/mL
  IC50 (µg/ml) for VRC01p alone, HIV-1 neutralization, TZM-bl cells (VRC01p:MVC series): 2.22 µg/mL
  IC50 (µg/ml) for VRC01p alone, HIV-1 neutralization, TZM-bl cells (VRC01p:TFV series): 2.14 µg/mL
[9]
  IC50 (µg/ml) for VRC01p alone, HIV-1 neutralization, TZM-bl cells (VRC01p:GRFT series): 0.25 µg/mL
  IC50 (µg/ml) for VRC01p alone, HIV-1 neutralization, TZM-bl cells (VRC01p:MVC series): 0.26 µg/mL
  IC50 (µg/ml) for VRC01p alone, HIV-1 neutralization, TZM-bl cells (VRC01p:TFV series): 0.23 µg/mL
[10]
  EC50: 0.35 µg/mL
[11]
  EC50: 67.9 µg/mL
[12]
  EC50: 4.11 µg/mL

B2: VRC01HEK (HEK293F cell-produced bnMAb VRC01) (antibody)
light: EIVLTQSPGTLSLSPGETAIISCRTSQYGSLAWYQQRPGQAPRLVIYSGSTRAAGIPDRFSGSRWGPDYNLTISNLESGDFGVYYCQQYEFFGQGTKVQVDIKRTVAAPSVFIFPPSDEQLKSGTASVVCLLNNFYPREAKVQWKVDNALQSGNSQESVTEQDSKDSTYSLSSTLTLSKADYEKHKVYACEVTHQGLRSPVTKSFNRGEC
heavy: not shown
notes: also called human cell-produced VRC01; human cell-derived bnMAb
[13]
  Kd: 3.82 nM
[10]
  EC50: 0.28 µg/mL
[14]
  EC50: 4.24 µg/mL
[11]
  EC50: 15.1 µg/mL
